One block for each binder: values may come before it.
Columns and labels:
FXI in rat plasma = FXI in rat plasma (rat); assay: cell-based or functional assay
FXI in rabbit plasma [1] = target: FXI in rabbit plasma (rabbit); assay: cell-based or functional assay
FXI in monkey plasma = FXI in monkey plasma (monkey); assay: cell-based or functional assay
[2] = target: T1, FXI in standard human plasma (human, UniProt P03951 19-625); assay: cell-based or functional assay
[3] = target: T1, FXI in standard human plasma; assay: cell-based or functional assay; remark: listed apart in the source
FXI in cynomolgus plasma = FXI in cynomolgus plasma (cynomolgus); assay: cell-based or functional assay
FXI in rabbit plasma [4] = target: FXI in rabbit plasma (rabbit); assay: cell-based or functional assay; remark: listed apart in the source
hFXI-CHis protein = target: T2, hFXI-CHis protein (human, UniProt P03951 19-625); assay: BLI, antibody on Protein A biosensor, hFXI-Chis 50-3.125 nM, 1:1 model
T2 construct: FXI is said in the background to be a dimer; nothing is said of the construct; also called human FXI; human FXI factor protein; not shown: C-terminal His tag (CHis)

APTT ratio in rat plasma at 0.5 µg/mL (FXI in rat plasma): 1.08 ratio | APTT ratio in rat plasma at 1 µg/mL (FXI in rat plasma): 1.04 ratio | APTT ratio in rat plasma at 2 µg/mL (FXI in rat plasma): 1.13 ratio | APTT ratio in rat plasma at 5 µg/mL (FXI in rat plasma): 1.37 ratio | APTT ratio in rat plasma at 10 µg/mL (FXI in rat plasma): 1.34 ratio | APTT ratio in rat plasma at 30 µg/mL (FXI in rat plasma): 1.37 ratio | APTT ratio in rabbit plasma at 0.1 µg/mL (FXI in rabbit plasma [1]): 0.85 ratio | APTT ratio in rabbit plasma at 0.5 µg/mL (FXI in rabbit plasma [1]): 0.88 ratio | APTT ratio in rabbit plasma at 1 µg/mL (FXI in rabbit plasma [1]): 0.93 ratio | APTT ratio in rabbit plasma at 2 µg/mL (FXI in rabbit plasma [1]): 1.17 ratio | APTT ratio in rabbit plasma at 5 µg/mL (FXI in rabbit plasma [1]): 1.88 ratio | APTT ratio in rabbit plasma at 10 µg/mL (FXI in rabbit plasma [1]): 2.05 ratio | whole blood APTT in monkey plasma at 0.1 µg/mL (FXI in monkey plasma): 20.9 | whole blood APTT in monkey plasma at 0.5 µg/mL (FXI in monkey plasma): 22.4 | whole blood APTT in monkey plasma at 1 µg/mL (FXI in monkey plasma): 24.7 | whole blood APTT in monkey plasma at 2 µg/mL (FXI in monkey plasma): 39.6 | whole blood APTT in monkey plasma at 5 µg/mL (FXI in monkey plasma): 51.4 | whole blood APTT in monkey plasma at 10 µg/mL (FXI in monkey plasma): 52.8 | whole blood APTT in standard human plasma at 0.1 µg/mL [2]: 22.9 | whole blood APTT in standard human plasma at 0.5 µg/mL [2]: 25.1 | whole blood APTT in standard human plasma at 1 µg/mL [2]: 28.3 | whole blood APTT in standard human plasma at 2 µg/mL [2]: 38.3 | whole blood APTT in standard human plasma at 5 µg/mL [2]: 47.2 | whole blood APTT in standard human plasma at 10 µg/mL [2]: 48.1 | APTT ratio in standard human plasma at 0.1 µg/mL [3]: 1 ratio | APTT ratio in standard human plasma at 0.5 µg/mL [3]: 1.09 ratio | APTT ratio in standard human plasma at 1 µg/mL [3]: 1.23 ratio | APTT ratio in standard human plasma at 2 µg/mL [3]: 1.67 ratio | APTT ratio in standard human plasma at 5 µg/mL [3]: 2.05 ratio | APTT ratio in standard human plasma at 10 µg/mL [3]: 2.09 ratio | APTT ratio in cynomolgus plasma at 0.1 µg/mL (FXI in cynomolgus plasma): 1 ratio | APTT ratio in cynomolgus plasma at 0.5 µg/mL (FXI in cynomolgus plasma): 1.07 ratio | APTT ratio in cynomolgus plasma at 1 µg/mL (FXI in cynomolgus plasma): 1.18 ratio | APTT ratio in cynomolgus plasma at 2 µg/mL (FXI in cynomolgus plasma): 1.89 ratio | APTT ratio in cynomolgus plasma at 5 µg/mL (FXI in cynomolgus plasma): 2.46 ratio | APTT ratio in cynomolgus plasma at 10 µg/mL (FXI in cynomolgus plasma): 2.53 ratio | whole blood APTT in rabbit plasma at 0.1 µg/mL (FXI in rabbit plasma [4]): 15.6 | whole blood APTT in rabbit plasma at 0.5 µg/mL (FXI in rabbit plasma [4]): 16.1 | whole blood APTT in rabbit plasma at 1 µg/mL (FXI in rabbit plasma [4]): 17.2 | whole blood APTT in rabbit plasma at 2 µg/mL (FXI in rabbit plasma [4]): 21.5 | whole blood APTT in rabbit plasma at 5 µg/mL (FXI in rabbit plasma [4]): 34.5 | whole blood APTT in rabbit plasma at 10 µg/mL (FXI in rabbit plasma [4]): 37.8
B1: reference antibody 14E11 (antibody, human IgG1, kappa, V domains shown)
VH: QVQLEESGPGLVAPSQSLSITCTVSGFSLTGYGIYWVRQPPGKGLEWLGMIWGDGRTDYNSALKSRLSISKDNSKSQVFLKMNSLQTDDTARYYCARDYYGSKDYWGQGTTLTVSS
VL: DIVMTQSHKFMSTSVGDRVSITCKASQDVSTAVAWYQQKPGQSPKLLIYLTSYRNTGVPDRFTGSGSGTDFTFTISSVQAEDLAVYYCQQHYKTPYSFGGGTKLERLR

Kd (hFXI-CHis protein): 4.12 nM | whole blood APTT in monkey plasma at 0.1 µg/mL (FXI in monkey plasma): 21 | whole blood APTT in monkey plasma at 0.5 µg/mL (FXI in monkey plasma): 23.1 | whole blood APTT in monkey plasma at 1 µg/mL (FXI in monkey plasma): 25.6 | whole blood APTT in monkey plasma at 2 µg/mL (FXI in monkey plasma): 30.2 | whole blood APTT in monkey plasma at 5 µg/mL (FXI in monkey plasma): 37.1 | whole blood APTT in monkey plasma at 10 µg/mL (FXI in monkey plasma): 42.5 | whole blood APTT in standard human plasma at 0.1 µg/mL [2]: 22.9 | whole blood APTT in standard human plasma at 0.5 µg/mL [2]: 26.3 | whole blood APTT in standard human plasma at 1 µg/mL [2]: 29.2 | whole blood APTT in standard human plasma at 2 µg/mL [2]: 36.4 | whole blood APTT in standard human plasma at 5 µg/mL [2]: 45.6 | whole blood APTT in standard human plasma at 10 µg/mL [2]: 51.1 | APTT ratio in standard human plasma at 0.1 µg/mL [3]: 1 ratio | APTT ratio in standard human plasma at 0.5 µg/mL [3]: 1.14 ratio | APTT ratio in standard human plasma at 1 µg/mL [3]: 1.27 ratio | APTT ratio in standard human plasma at 2 µg/mL [3]: 1.58 ratio | APTT ratio in standard human plasma at 5 µg/mL [3]: 1.98 ratio | APTT ratio in standard human plasma at 10 µg/mL [3]: 2.22 ratio | whole blood APTT in rabbit plasma at 0.1 µg/mL (FXI in rabbit plasma [4]): 15.3 | whole blood APTT in rabbit plasma at 0.5 µg/mL (FXI in rabbit plasma [4]): 16 | whole blood APTT in rabbit plasma at 1 µg/mL (FXI in rabbit plasma [4]): 16.4 | whole blood APTT in rabbit plasma at 2 µg/mL (FXI in rabbit plasma [4]): 18.1 | whole blood APTT in rabbit plasma at 5 µg/mL (FXI in rabbit plasma [4]): 24.1 | whole blood APTT in rabbit plasma at 10 µg/mL (FXI in rabbit plasma [4]): 28.8
B2: reference antibody BAY1213790 (antibody, human IgG1, kappa, V domains shown)
VH: EVQLLESGGGLVQPGGSLRLSCAASGFTFSQYGMDWVRQAPGKGLEWVSGIGPSGGSTVYADSVKGRFTISRDNSKNTLYLQMNSLRAEDTAVYYCTRGGPYYYYGMDVWGQGTTVTVSS
VL: DIQMTQSPSSLSASVGDRVTITCQASQDISNYLNWYQQKPGKAPKLLIYDASNLETGVPSRFSGSGSGTDFTFTISSLQPEDIATYYCQQADSFPVTFGGGTKVEIKR
notes: Anti-FXI antibody developed by Bayer

Reference: patent US20250034277A1 (SUZHOU ALPHAMAB, published 2025)
